Assay results reported in US20060264363.

T1: CREBL1 with N-terminal c-Myc-tag
T1 chain: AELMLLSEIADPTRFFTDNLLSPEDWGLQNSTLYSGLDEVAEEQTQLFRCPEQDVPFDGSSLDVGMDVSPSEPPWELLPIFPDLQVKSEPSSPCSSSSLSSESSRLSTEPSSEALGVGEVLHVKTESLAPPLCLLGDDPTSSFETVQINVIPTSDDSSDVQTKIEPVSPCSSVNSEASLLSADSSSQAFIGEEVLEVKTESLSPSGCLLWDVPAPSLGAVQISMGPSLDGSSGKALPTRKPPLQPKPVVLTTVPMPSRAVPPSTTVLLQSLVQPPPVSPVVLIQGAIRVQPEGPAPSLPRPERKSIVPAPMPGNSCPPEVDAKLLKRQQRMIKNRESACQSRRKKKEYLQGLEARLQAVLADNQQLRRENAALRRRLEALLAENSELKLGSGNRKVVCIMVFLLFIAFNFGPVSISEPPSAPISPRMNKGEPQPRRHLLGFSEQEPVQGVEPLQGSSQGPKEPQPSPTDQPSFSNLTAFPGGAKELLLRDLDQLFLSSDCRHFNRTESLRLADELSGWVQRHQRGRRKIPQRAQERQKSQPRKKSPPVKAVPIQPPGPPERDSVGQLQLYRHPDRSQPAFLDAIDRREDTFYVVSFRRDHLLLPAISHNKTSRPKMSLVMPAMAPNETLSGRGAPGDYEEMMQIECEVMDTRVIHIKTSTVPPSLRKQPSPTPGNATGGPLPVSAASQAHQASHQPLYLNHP

T2: ATF6 with N-terminal c-Myc-tag
T2 chain: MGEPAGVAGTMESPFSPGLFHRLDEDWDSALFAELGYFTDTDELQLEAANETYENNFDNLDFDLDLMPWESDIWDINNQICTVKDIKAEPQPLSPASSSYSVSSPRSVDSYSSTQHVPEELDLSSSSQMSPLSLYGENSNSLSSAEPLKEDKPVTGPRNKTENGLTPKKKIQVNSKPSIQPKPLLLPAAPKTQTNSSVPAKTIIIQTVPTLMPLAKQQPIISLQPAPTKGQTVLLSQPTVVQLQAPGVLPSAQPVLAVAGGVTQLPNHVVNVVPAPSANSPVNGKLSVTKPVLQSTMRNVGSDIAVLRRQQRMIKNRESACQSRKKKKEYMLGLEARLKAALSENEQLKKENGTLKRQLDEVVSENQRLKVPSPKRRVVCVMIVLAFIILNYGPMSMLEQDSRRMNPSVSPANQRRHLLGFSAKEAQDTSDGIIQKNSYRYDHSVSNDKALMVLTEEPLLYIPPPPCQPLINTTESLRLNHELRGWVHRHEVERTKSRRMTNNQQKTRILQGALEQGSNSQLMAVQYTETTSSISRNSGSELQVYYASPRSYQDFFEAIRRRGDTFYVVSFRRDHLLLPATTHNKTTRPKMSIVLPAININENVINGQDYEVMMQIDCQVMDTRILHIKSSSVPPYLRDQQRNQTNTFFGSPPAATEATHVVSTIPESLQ

T3: SHC3 (p64) with C-terminal c-Myc-tag
T3 chain: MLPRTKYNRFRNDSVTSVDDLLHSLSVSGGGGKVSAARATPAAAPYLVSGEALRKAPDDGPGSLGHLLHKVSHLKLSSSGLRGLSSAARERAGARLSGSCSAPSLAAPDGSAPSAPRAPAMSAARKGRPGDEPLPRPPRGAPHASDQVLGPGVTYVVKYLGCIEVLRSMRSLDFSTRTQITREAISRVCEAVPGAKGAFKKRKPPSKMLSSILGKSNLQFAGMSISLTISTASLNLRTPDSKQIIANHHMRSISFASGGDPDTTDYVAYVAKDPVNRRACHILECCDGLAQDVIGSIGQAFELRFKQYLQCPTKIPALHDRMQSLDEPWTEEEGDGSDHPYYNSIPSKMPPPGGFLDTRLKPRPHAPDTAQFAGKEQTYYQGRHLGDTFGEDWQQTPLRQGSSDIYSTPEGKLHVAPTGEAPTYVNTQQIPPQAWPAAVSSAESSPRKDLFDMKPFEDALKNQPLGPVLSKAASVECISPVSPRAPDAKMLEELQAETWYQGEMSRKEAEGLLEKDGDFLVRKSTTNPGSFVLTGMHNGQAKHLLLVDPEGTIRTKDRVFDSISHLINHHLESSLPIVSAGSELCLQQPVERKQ

T4: biotinylated SHC3 (p52), C-terminal tagged (pcDNA3.1/V5-His)
T4 chain: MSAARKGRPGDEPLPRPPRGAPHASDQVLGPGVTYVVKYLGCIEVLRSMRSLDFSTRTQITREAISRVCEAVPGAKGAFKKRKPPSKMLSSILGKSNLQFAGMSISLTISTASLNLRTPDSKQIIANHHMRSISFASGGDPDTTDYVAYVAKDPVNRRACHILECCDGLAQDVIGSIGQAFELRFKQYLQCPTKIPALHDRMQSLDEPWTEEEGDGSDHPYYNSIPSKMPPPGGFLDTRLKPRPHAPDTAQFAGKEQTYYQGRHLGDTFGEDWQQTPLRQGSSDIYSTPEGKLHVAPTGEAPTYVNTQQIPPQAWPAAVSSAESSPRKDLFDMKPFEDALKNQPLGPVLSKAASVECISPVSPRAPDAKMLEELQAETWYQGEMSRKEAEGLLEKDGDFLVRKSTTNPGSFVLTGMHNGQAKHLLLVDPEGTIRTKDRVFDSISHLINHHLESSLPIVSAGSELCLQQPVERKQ

T5: biotinylated CREBL1, N-terminal tagged (pcDNA3.1/His)
T5 chain: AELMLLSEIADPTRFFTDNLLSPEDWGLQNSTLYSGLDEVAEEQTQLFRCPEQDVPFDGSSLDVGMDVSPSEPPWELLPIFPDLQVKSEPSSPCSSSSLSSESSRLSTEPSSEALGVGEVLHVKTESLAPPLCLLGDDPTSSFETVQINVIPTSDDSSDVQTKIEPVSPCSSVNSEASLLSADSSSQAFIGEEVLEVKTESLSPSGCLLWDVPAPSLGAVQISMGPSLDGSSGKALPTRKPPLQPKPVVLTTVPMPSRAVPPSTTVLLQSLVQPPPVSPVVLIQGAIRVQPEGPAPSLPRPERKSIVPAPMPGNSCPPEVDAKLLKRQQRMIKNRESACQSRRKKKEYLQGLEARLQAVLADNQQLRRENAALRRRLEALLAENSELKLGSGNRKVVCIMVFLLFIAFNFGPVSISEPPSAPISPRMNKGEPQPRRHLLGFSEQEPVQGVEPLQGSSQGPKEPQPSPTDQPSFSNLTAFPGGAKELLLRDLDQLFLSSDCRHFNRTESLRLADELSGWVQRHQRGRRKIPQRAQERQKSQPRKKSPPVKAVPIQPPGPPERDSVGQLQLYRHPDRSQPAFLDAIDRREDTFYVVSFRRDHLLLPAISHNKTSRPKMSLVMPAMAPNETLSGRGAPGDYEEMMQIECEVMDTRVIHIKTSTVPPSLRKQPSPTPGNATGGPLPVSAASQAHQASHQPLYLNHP

T6: biotinylated SHC3 (p64), C-terminal tagged (pcDNA3.1/V5-His)
T6 chain: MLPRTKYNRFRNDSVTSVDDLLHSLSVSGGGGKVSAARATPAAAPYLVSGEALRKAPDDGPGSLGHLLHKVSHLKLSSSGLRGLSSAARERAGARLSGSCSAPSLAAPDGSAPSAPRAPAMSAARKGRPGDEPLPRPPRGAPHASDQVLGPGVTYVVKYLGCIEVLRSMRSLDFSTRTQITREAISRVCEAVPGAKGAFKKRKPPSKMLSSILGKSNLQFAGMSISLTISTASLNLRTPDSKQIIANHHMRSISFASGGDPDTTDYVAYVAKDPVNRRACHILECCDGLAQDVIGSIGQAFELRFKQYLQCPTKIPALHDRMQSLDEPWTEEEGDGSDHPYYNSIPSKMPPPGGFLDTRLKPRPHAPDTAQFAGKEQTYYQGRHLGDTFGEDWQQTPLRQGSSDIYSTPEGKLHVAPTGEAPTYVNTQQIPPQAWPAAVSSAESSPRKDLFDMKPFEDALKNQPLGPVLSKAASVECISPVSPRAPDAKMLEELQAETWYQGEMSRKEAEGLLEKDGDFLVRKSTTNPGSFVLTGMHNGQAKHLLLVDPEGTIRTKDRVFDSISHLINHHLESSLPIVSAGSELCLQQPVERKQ

T7: SHC3 (p52) with C-terminal c-Myc-tag
T7 chain: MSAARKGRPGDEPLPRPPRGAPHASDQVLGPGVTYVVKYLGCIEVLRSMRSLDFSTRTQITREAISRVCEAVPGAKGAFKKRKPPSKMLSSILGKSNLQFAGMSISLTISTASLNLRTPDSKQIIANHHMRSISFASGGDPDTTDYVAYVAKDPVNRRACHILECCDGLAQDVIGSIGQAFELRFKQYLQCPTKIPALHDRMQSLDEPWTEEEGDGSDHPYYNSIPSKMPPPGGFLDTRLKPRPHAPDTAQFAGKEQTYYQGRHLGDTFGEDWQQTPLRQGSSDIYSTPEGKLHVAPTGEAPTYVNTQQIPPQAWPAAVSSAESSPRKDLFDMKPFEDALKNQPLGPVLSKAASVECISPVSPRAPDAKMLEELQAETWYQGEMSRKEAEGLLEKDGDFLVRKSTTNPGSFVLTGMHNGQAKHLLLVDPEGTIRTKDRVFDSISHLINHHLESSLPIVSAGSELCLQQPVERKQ


Legend:
[1] = biological target: T1, CREBL1 with N-terminal c-Myc-tag
[2] = biological target: T2, ATF6 with N-terminal c-Myc-tag
[3] = biological target: T3, SHC3 (p64) with C-terminal c-Myc-tag
[4] = biological target: T4, biotinylated SHC3 (p52), C-terminal …
[5] = biological target: T5, biotinylated CREBL1, N-terminal tagged …
[6] = biological target: T6, biotinylated SHC3 (p64), C-terminal …
[7] = biological target: T7, SHC3 (p52) with C-terminal c-Myc-tag

| Protein | in vitro protease assay: band of CREBL1 on anti-Myc Western blot [1] | in vitro protease assay: band of ATF6 on anti-Myc Western blot [2] | in vitro protease assay: band of SHC3 (p64) on anti-Myc Western blot [3] | in vitro protease assay: degradation pattern of biotinylated SHC3 (p52) (streptavidin HRP and anti-V5 blots) [4] | in vitro protease assay: degradation pattern of biotinylated CREBL1 (streptavidin HRP and anti-Xpress blots) [5] | in vitro protease assay: degradation pattern of biotinylated SHC3 (p64) (streptavidin HRP and anti-V5 blots) [6] | in vitro protease assay: degradation of SHC3 (p52), anti-Myc Western blot [7] | in vitro protease assay: degradation of CREBL1, anti-Myc Western blot [1] | in vitro protease assay: degradation of ATF6, anti-Myc Western blot [2] | in vitro protease assay: degradation of SHC3 (p64), anti-Myc Western blot [3] | in vitro protease assay: degradation of biotinylated SHC3 (p52) (streptavidin HRP blot) [4] | in vitro protease assay: degradation of biotinylated CREBL1 (streptavidin HRP blot) [5] | in vitro protease assay: degradation of biotinylated SHC3 (p64) (streptavidin HRP blot) [6] |
| --- | --- | --- | --- | --- | --- | --- | --- | --- | --- | --- | --- | --- | --- |
| mature HtrA2 with C-terminal histidine (His)-tag (protein) MAVPSPPPASPRSQYNFIADVVEKTAPAVVYIEILDRHPFLGREVPISNGSGFVVAADGLIVTNAHVVADRRRVRVRLLSGDTYEAVVTAVDPVADIATLRIQTKEPLPTLPLGRSADVRQGEFVVAMGSPFALQNTITSGIVSSAQRPARDLGLPQTNVEYIQTDAAIDFGNSGGPLVNLDGEVIGVNTMKVTAGISFAIPSDRLREFLHRGEKKNSSSGISGSQRRYIGVMMLTLSPSILAELQLREPSFPDVQHGVLIHKVILGSPAHRAGLRPGDVILAIGEQMVQNAEDVYEAVRTQSQLAVQIRRGRETLTLYVTPEVTE | the band of CREBL1 was significantly reduced after the reaction of active HtrA2 with CREBL1 for overnight (O/N) | the band of ATF6 was significantly reduced after the reaction of active HtrA2 with ATF6 for four hours (4 h) or overnight (O/N) | the band of SHC3 (p64) was significantly reduced after the reaction of active HtrA2 with SHC3 (p64) for four hours (4 h) or overnight (O/N) | remarkable reduction of the band of biotinylated SHC3 (p52) was observed, but the band that was supposed to be a degradation product of SHC3 (p52) was not detected | remarkable reduction of the band of biotinylated CREBL1 was observed, and further, the band that was supposed to be a degradation product of CREBL1 was detected around 50 kDa | remarkable reduction of the band of biotinylated SHC3 (p64) was observed, and further, the bands that were supposed to be a degradation products of SHC3 (p64) were detected around 70 kDa, 40 kDa, and 30 kDa | Further it was observed that SHC3 (p52) was also degraded by mature HtrA2. |  |  |  |  |  |  |
| mature HtrA2 (S306A) with C-terminal histidine (His)-tag (protein) MAVPSPPPASPRSQYNFIADVVEKTAPAVVYIEILDRHPFLGREVPISNGSGFVVAADGLIVTNAHVVADRRRVRVRLLSGDTYEAVVTAVDPVADIATLRIQTKEPLPTLPLGRSADVRQGEFVVAMGSPFALQNTITSGIVSSAQRPARDLGLPQTNVEYIQTDAAIDFGNAGGPLVNLDGEVIGVNTMKVTAGISFAIPSDRLREFLHRGEKKNSSSGISGSQRRYIGVMMLTLSPSILAELQLREPSFPDVQHGVLIHKVILGSPAHRAGLRPGDVILAIGEQMVQNAEDVYEAVRTQSQLAVQIRRGRETLTLYVTPEVTE |  |  |  |  |  |  | the degradation of SHC3 (p52) by inactive HtrA2 (mature HtrA2 (S306A)) was not observed as well | the degradation of CREBL1, ATF6, and SHC3 (p64) by inactive HtrA2 (mature HtrA2 (S306A)) was not observed | the degradation of CREBL1, ATF6, and SHC3 (p64) by inactive HtrA2 (mature HtrA2 (S306A)) was not observed | the degradation of CREBL1, ATF6, and SHC3 (p64) by inactive HtrA2 (mature HtrA2 (S306A)) was not observed | the degradation of SHC3 (p52) by inactive HtrA2 (mature HtrA2 (S306A)) was not observed | the degradation of CREBL1 by inactive HtrA2 (mature HtrA2 (S306A)) was not observed, and the band around 50 kDa as above was not detected | the degradation of SHC3 (p64) by inactive HtrA2 (mature HtrA2 (S306A)) was not observed, and the bands around 70 kDa, 40 kDa and 30 kDa as above were not detected |
